Reference: paper doi:10.1101/2021.03.07.433908 (bioRxiv, 2021)

Molecular target: the molecule itself
Test: pulsed field gradient diffusion NMR

B1: Human αB-crystallin (natural protein)
chain: MDIAIHHPWIRRPFFPFHSPSRLFDQFFGEHLLESDLFPTSTSLSPFYLRPPSFLRAPSWFDTGLSEMRLEKDRFSVNLDVKHFSPEELKVKVLGDVIEVHGKHEERQDEHGFISREFHRKYRIPADVDPLTITSSLSSDGVLTVNGPRKQVSGPERTIPITREEKPAVTAAPKK
modifications: 15N labelled (HSQC spectra); 2H/13CH3 Ile δ1, Val γ1/γ2, Leu δ1/δ2 labelled (binding studies and diffusion analyses)
- stoichiometry N: 28
